Assay results from the DeepSol protein solubility set.

Assay: soluble on expression in E. coli; label from the status in PepcDB or PDB records

Sequence | soluble on expression in E. coli
LQYQPNKLARALTSSGFDAIMVISTRSTKTTAGNPFFSEVLHAITAKAEEEGFDVILQTSHNPAEDLQKCESKIKQKMIKGIIMLSSPADESFFAQLDKYDIPVVVIGKVEGQYAHVYSVDTDNFGDSIALTDALIESGHQNIACLHAPLDVHVSVDRVNGYKQSLAAHNIAVRDEWIVDGGYTHETALKAARQLLSQSPLPEAVFATDSLKLMSIYRAAAEKNIAIPQQLAVVGYSNETLSFILTPAPGGIDVPTQELGQQSCELLFRLISGKPSPQNITVATHMTLK | soluble
MSKIAIIVDSSSYIPKDQLKKHHIYVIDNPIIFGETIYHEFNWPVNADFYQQMATTPIQPTTSQPAPGDFEAAFQAAKDDGYKQALVITLSSGFSGTFLNTSAIASSHSDIDIHVWDSRIACLGAGNQALLAAYLAEKGIGIDEILSKLQILRSRTGVFFVVDSISHLQRTGRLSGGQALVAGLLNIKPILNINTNKQGKIDAVAKTRKMSGAWRYIEKHFAKIADNYQRAGWPMRVSILDADNPELADAWLKRAEKRWPEIIFERGIIGPLVGVHIGGKAVGLIWAEDYKRLED | not soluble
MSSQSIDDKFMSITQMKNLIHYVKKNDALSHLCIYILIITGSRFKPVQHLRYEDLNFKKSCIHLNDTKNKYSKRNVKVRIKDLEYIQSVINKHPINQNGYIFHNFINFISYSAINDVLVRFCLKYKYDKYTLKSLRHTHCSYLLAKGISIQYISKRLGHADIHTTLKIYSHLIKEFEDSENSLIEKNLNDLFSDLEHHHHHH | not soluble
MRKFIFILLLIISSFSFCSNEISVDKSVEESVTKDYDQDGKYSSYERALRNAQGSIYVTLPEKRGYWYTILDRIKAEEDELMPDEKARIRRK | not soluble
MTSLILPTDDGGTREYRLQAATSWVKPTAPLTARRAYAAAHVIPEVAADNTPGAPAQLDWDATLAYRHELWSYGLGVADAMDTAQRGMGLDWAATQQLIKRTGAEAASVVAAGNAAITGKSVRDLVSCGAGTDQLDITALPEGAAGIQAVIDAYREQIAVVSEAGPKVILMASRALAKVANGADDYLHVYSTLLQEVDQPVILHWLGTMFDPALAGYWGSDDVSVATDTFLSLIREHSDKVDGVKVSLLDASHEVALRAALPEGVRLYTGDDFNYPELIDGDQTHHSDALLGIFAAIYPAASVALQKYDAGQGTEGRAILDSTRELGKHIFSAPTFYYKTGIAFMSWLNGKQPGFQMVGGLHSGRSVLHLAKTFELADQAGLLKDPSLAAFRMSDFLRINGVG | not soluble
GPGSMLILLFFSPEMLRRTLSRCFSADAIGPVHPDVMWGYMDARYAGPGWVSWIKQLPVETLTMQGGTSMTNMNDRTGVIADPEDPRHPIALIQWGPMNHYDGAFMQLSYGDYGPISQGSRLMQVLYDNYLEPFSMNRVCAQLYFYQKVPNNYHESVEASAEYIGQTASLIGQVLVGMGSVIMEGVTVKGDTNCVYIAEGVQVLENTCIVSDAPTDLLAYQRHEAINPYQQWDGMDGVCRIMQNTIIEPNCFLDSCSIGPFNRIGHNTKIMKGVTTGTMVHILPGSVVTKDTKIGDGELWGGAPAVKIGKVSKFEWKRPYFASLLHRESVVESYRNMSRYGDQVVHFQDKMGKLDTLMLQYEKDVPASVKAKIKEFVQGREPFHHMLTRITQGWSPANRPDDKNYNLCPPLPGVKLFAEHNNDSSDSDLHGTYMDITNIFNDFRW | not soluble
MQSVDVAIVGGGMVGLAVACGLQGSGLRVAVLEQRVQEPLAANAPPQLRVSAINAASEKLLTRLGVWQDILSRRASCYHGMEVWDKDSFGHISFDDQSMGYSHLGHIVENSVIHYALWNKAHQSSDITLLAPAELQQVAWGENETFLTLKDGSMLTARLVIGADGANSWLRNKADIPLTFWDYQHHALVATIRTEEPHDAVARQVFHGEGILAFLPLSDPHLCSIVWSLSPEEAQRMQQASEDEFNRALNIAFDNRLGLCKVESARQVFPLTGRYARQFASHRLALVGDAAHTIHPLAGQGVNLGFMDAAELIAELKRLHRQGKDIGQYIYLRRYERSRKHSAALMLAGMQGFRDLFSGTNPAKKLLRDIGLKLADTLPGVKPQLIRQAMGLNDLPEWLRLEHHHHHH | not soluble
MTTKLQKRVNDLDEDIPRPPFSSHSDKTEDKEGVSEACPVCEKTVQNPCVLETGYVACYPCAISYLVNNEGHCPVTNKKLLGCTYNKHTNKWEVVTGIRKLLI | not soluble
MSDITTKSTKQTESLVCGEFKALGPAPYYVGDEIIVMRCAETINEIFSDWTKRANLDENKYTPFDVNAPIELPRRTDMLKSYNLDPPINETGKIASKMIARELCDRHAIPSVIFCSPDFASVETAHLIKSYIGEKCGAIRIEPELSTLHKSAHVFFGPNHFTSLGYGIDEKNPLHAVSDGVSLSDLVNRIKRAFYELTSKVDNALIIVDSLSMMIISSLFHNVYIRNDSSVDLERLRSLASFPSLSNFTAYRVGGQTGVKTYDLTSTCLRPLTFTGFSNEIDLE | not soluble
MNRIKEVLEEKGIKQTWLAEKLGKSFSIVNSYVCNRRQPSLDILFEIAKILEVDVRVLIGTKENRQKSK | not soluble
TCCHGHGHGHDHGHRHAPRPAVAAIGTLAGNAELRWSDLRIEAMDCPTEERLIRDALGRQPAVESLEFNLMQRLLRVQHRFDSVEPLQKLIAGLGMQAVPLDAGENTDGPSQAPA | not soluble
TPAQLISIAVTPINPSVAKGLIRQFKATGTYTDHSVQDVTALATWSSSNPGKAMVNNVTGSVTTVATGNTNIKATIDSISGSSVLNVTPALLTSIEITPTINSITHGLTKQFKATGIFSDKSTQNLTQLVTWISSDPSKIEIENTSGKKGIATASKLGSSNIKAVYKFIQSSPIPITVTDLKLKSITISPSSSSIAKGLTQQFKAIGTFIDGSEQEITNLVTWYSSKSDVAPINNAANAKGLATALSIGSSNISAIYNSISSNKINFNVSAATLDSIKINPVNNNIAKGLTQQYTALGVYSDSTIQDISDSVTWSSSNSDSISISNSTETKGKATALQIGNSKITATYNSISENIDITVSAATL | not soluble
GPGSMRNYNNFNRVWKAPRRPFEKERLDREMKLCGQYGLRCKREIWRVNMTLSKMRRTARLLLTLPENHPRRLLEGSAIMRRCHEYGFLDEEKDKLDYVLSLTVPDILERRLQTIVFKAGLAKSVHHARVLIQQRHIAVAKQIVTIPSFIVRVSSERHIAFADASPFGNGRAGRVKRVRAKAAKRHAGGGDDDE | not soluble
MFNYSGLNEECGVFGIWNHPEAAQLTYMGLHSLQHRGQEGAGIVVSDQNELKGERGLGLLTEAIKDDQMERLKGYQHAIGHVRYATSGNKGIENIQPFLYHFYDMSVGICHNGNLINAKSLRQNLEKQGAIFHSSSDTEVIMHLIRRSKAPTFEEALKESLRKVKGGFTFAILTKDALYGAVDPNAIRPLVVGKMKDGTYILASETCAIDVLGAEFVQDIHAGEYVVINDKGITVKSYTHHTTTAISAMEYIYFARPDSTIAGKNVHAVRKASGKKLAQESPVNADMVIGVPNSSLSAASGYAEEIGLPYEMGLVKNQYVARTFIQPTQELREQGVRVKLSAVKDIVDGKNIILVDDSIVRGTTIRRIVKMLKDSGANKVHVRIASPEFMFPSFYGIDVSTTAELISASKSPEEIKDYIGADSLAYLSVDGLIESIGLDYDAPYSGLCVESFTGDYPAGLYDYEANYKAHLSHRQKQYISKNKHFFDSEGNLNV | not soluble
MSDTQQVPAIVILGQGALDTARRVQARYPGALVHGLAGRVEADRSYTDFGDTLRELYCADRPIVALCAAGIVIRSLAPLLQRKGAEPPVLALAEDGSAVVPLLGGLAGVNRLAREIGEVLAVAPAITTSGELRFGTCVLNPPAGYVLADLEQGKRFVADLLGGQPVRVEGAADWLDAARLPRDPEAALAIHVTPSARAPRAEELLIHPRCVLAALEPADAAADAVRQALVDAGLAAAALGGLLADSARMADPRLQAAADALGVPLRFLPQADPAARLRQALPAAEQVGDRLAVAAAPLAMDRIGQRRGRLTVIGLGPGCAELMVPAARRALDEAEDILGYQTYVDMAGPFRAGQVLHGSDNREELQRARHAFELAATGRAVVLVSSGDPGVFAMAAAVLEALHGAGEPAWDAVELRIFPGVSAALATAARAGAPLGHDFCVLSLSDNLKPWEVIERRLDLAGAADLAMAFYNPISRARPWQLGRALEIVARHRSPQTLVVLGRDIGRPGERLLRTTLGELRAEQVDMRTLVIIGSSTTRSFPRADGEAWVYTPRWYPSE | not soluble
MRLERTFDPNDLSTQNMESPICLPIGFVHFLAQSQTLQQVLDTVAEWINRIFESDRTSITLYENSDYLKVYSFSGNKAIPADFLVPIDQAFVGRVFKNQQLIICDDVSQSDELDCVMLTSSGMGTCMDAPLMHGQMCLGTLNVAHHQTHFYTKEQAAQLQCIANWIALNI | not soluble
MGSDKIHHHHHHMETPRREAFRYHEVEQHVLRLIDSKQYPPGSRLPSLRAVARTLSASLATVCHAYEELERRGVVESRPRSGYYVRTLPSPLPVPHSAPAEEEEPREANRSRLIATVLEAVGNPQMAPFGVVSPDPSLLPGKKLGQILAELSRRNAEQCVAYETIAGNAEYRRQIAKRACEDGMPTRASEVVATTGAMEALYIALRVLTRPGDNVLIQSPTYYCFLQLLETLGLRAVEIPSDPKHGINPADLTKALSTFEVAACILSGNFNNPDGALTPDAAKREIVDILAARGIPLVDDDVSADLHFDAQRPASFKQYDKKGLVVFCSSFSKTIAPGYRAGWMLPGRFMEKALEVKATTNVCCATPTQAAVGEFMRLGLYDRQLKKLRSAFQTQICAMHECIGSAFPDGTRVTSPRGGGVLWVELPAAVNGVELFFKARARRVGIAPGSIFSTRDRFSNYIRLSCCGIWNPRMEEALRDLGRLARELT | not soluble
RSFGLRASLVDALRKGKIQVAYQPLRVLDSGRMAGVEALARWTYDEVGPISPVTFLGWVEAMGLRQPFTRYIVQAALDGMKTRMAGDAPFYLSINVFPEDLEDESFLDFLTQSVRERELSPGSVVLEVTESAVFSTASPSVLFRRFRAAGFRIFLDDFGVGYSNLGNIIRWEVDGIKLDRIFMQSLGDFDSAAPVLDQVIEMARQLDLHLVIEGIEVRSQADYIFKRAPHAVGQGWLFGRPGPACALPAA | not soluble
MINKDTQLCMSLSGRPSNFGTTFHNYLYDKLGLNFIYKAFTTQDIEHAIKGVRALGIRGCAVSMPFKETCMPFLDEIHPSAQAIESVNTIVNDNGFLRAYNTDYIAIVKLIEKYHLNKNAKVIVHGSGGMAKAVVAAFKNSGFEKLKIYARNVKTGQYLAALYGYAYINSLENQQADILVNVTSIGMKGGKEEMDLAFPKAFIDNASVAFDVVAMPVETPFIRYAQARGKQTISGAAVIVLQAVEQFELYTHQRPSDELIAEAAAFARTKFLEHHHHHH | soluble
SEAVRPDSCESGPAAPRAEERPAPEARVHFRVTRFIMEAGVKLGMQSIPIATACTIYHKFFCEINLDAYDLYLVAMSSIYLAGKVEEQHLRTRDIINVSHRYFNPGSEPLELDSRFWELRDSIVQCELLMLRVLRFQVSFQHPHKYLLHYLISLKNWLNRYSWQRTPISVTAWALLRDSYHGGLCLRFQAQHLAVAVLYLALQVYGVEVPAEGEAEKPWWQVFSDDLTKPIIDNIVSDLIQIYTMDTEIP | soluble
MNITDLKPTKVWKFFHEITQVPRPSKKEEKILAYLVKFAEDRNLKYRTDEVGNLVIEKPATPGYEHLETVILQSHMDMVCEKNADKVHDFENDPIRTIIDGEWLHADGTTLGADNGIGCAAELAILDSDDIEHGPIECLFTMDEETGMTGAMNLKPGFFNGKILLNLDSEDEGELFIGCAGGMGTMVEFAYEKREATDDYLYFEVKVSGLKGGHSGGEIHIGLGNANKILTRYLYALEHELDWKLCSFQGGNLHNAIPREAHAVIGLKADQKERARVILNELAAAVEDELKRVDPGVKLEMKSVGKPAYRIDCDTKRRLVRALYACPHGVYGMSHDIEGLVETSSNLASVKMKEDDKIYVETSQRSSTSSLISDIANTVASVFELADAKISFRDPYPGWKPNPDSPILKAASESYERIFGRKPAIKAIHAGLECGLFLDKYPYLDMVSFGPTLRDVHSPVEKIEIKTVQLWWDHLVDILKHIPAAK | not soluble
